Where a chain is given by its changes, count along the chain named.
B1: ADI-21004 (antibody, V domains shown)
VH: QVQLQESGGGVVQPGRSLTLSCAASGFTFSSYGMHWVRQAPGKGLDWVAEIWYDGSNKYYVDSVKGRFTISRDNSKNTLYLQMKSLRAEDTAIYYCARDGGYESPFFDKWGQGTLVTVSS
VL: EIVMTQSPDSLGVSLGERATINCKSSQSLYTSNHENSLAWYQQKPGQPPRLLIYWASTRELGVPDRFSGSGSGTDFTLTISSLQAEDVAVYYCQQYHTTPLTFGPGTKVEIK
B2: ADI-20981 (antibody, V domains shown)
VH: QVQLQESGPRLVKPSETLSLTCTVSGDSISSRNYFWAWIRQPPGKGLEWIGTIYYSGNTYSNPSLKSRVTISVDTSKKQFSLNLSSVTAADTAVYYCARGAYGGDAFDIWGQGTVVTVSS
VL: DIRVTQSPSSVSASVGDRVTITCRASQGIGTWLAWYQQKPGKAPHLLIYAASRLQSGVPSRFSGSGSGTDFTLSISSLHPEDFATYYCQQAYAFPRTFGQGTKVEIK
B3: ADI-20989 (antibody, V domains shown)
VH: EVQLLESGPGLVKPSGTLSLTCAVSGGSIINSNWWSWVRQSPGKGLEWIGDIYHSGSTTYNPSLKSRVTISVDRSKNQYSLRLTSVTAADTAVYYCAKIGPDNRSGPDYYYFMDVWGKGTTVTVSS
VL: EIVLTQSPSSLPASVGDRVTISCRASQSISNYVYWYQQKPGKAPKLLIYAASSLQSGVPSRFSGSGSGTDFTLSISSLQFEDFATYFCQQSYSTPPTFGQGTKLEIK
B4: ADI-21000 (antibody, V domains shown)
VH: EVQLVESGPVLVKPRGTLTLTCTVSGFSLSDARMGVSWIRQPPGKALEWLAHIFWDDEKSYSTSLKNRLTISKDTSRGQVVLRMTNMDPVDTGTYFCARVNTYHSGGYYLYYFDVWGQGTLVTVSS
VL: EIVLTQSPSSLSASVGDRVTITCRASQIIASYLNWYQQKPGQAPKLLIYAASSLQSGVPSRFSGSGSGTDFTLTISSLQPEDFATYYCQQSYSTRMYTFGQGTKVEIK
B5: ADI-21008 (antibody, V domains shown)
VH: QVQLQESGAGLLKPSETLSLTCTVYGGTFSGYHWNWIRQPPGKGLEWIGEINHRENTDYNASLESRVTISVDTSKRQFSLKMNSVTVADTAVYYCARGIQVLTNLGTEVRVHQFLDLWGRGTLVTVSS
VL: DIVLTQTPATLSLSPGERATLSCRASQSVSTYLAWYQQKPGQAPRLLIYDASNRAAGIPARFSGSGSGTDFTLTISSLEPEDFAVYYCQQRTNWLPLTFGGGTKVDIK
notes: also called Ab 259
B6: ADI-21001 (antibody, V domains shown)
VH: EVQLVESGPGLVKPSETLSLTCTVSGGSISDIDYYWGWIRQPPGKGLEWIGSIYYSGSTYYNPSLESRVTISVDTSKNQFSLKLRSVSAADTALYHCARHGPPWVVTAIRGHAFDVWGQGTTVTVSS
VL: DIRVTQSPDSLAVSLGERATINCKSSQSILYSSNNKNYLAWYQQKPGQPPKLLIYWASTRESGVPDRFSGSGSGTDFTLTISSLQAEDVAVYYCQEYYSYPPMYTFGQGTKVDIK
B7: ADI-20990 (antibody, V domains shown)
VH: EVQLVESGGGVVQPGRSLRLSCSASGFPFHSYAMHWVRQAPGKGLEWVAGIWYEGSSESYADSVKGRLTISRDNSRNTLYLQMNSLRVEDTAVYYCARRGSFSGFDSWGQGSLVTVSS
VL: DIVMTQSPLSLPVTPGEPASISCRSSQSLLHSNGYNYLDWYLQKPGQSPQLLISLGSNRASGVPDRFSGSVAGTDFTLKISRVEAEDVGVYYCMQSSQTPYTFGQGTKVDIK
B8: ADI-20993 (antibody, V domains shown)
VH: EVQLVESGGGVVQPGRSLRLTCAASGFPFSSYAMHWVRQAPGKGLEWVAVTWYDGPNRDYADSVKGRFTVSRDNSKNTLYLQMTSLRADDTAVYYCARRGSWGSFDYWGQGTLVTVSS
VL: DIVMTQSPLSLSATPGEPASISCRPSQSLLHSNGYNYLEWYLQKPGQSPQLLIYLGSNRASGVPDRFSGGGSGTDFTLRISRVEADDVGVYYCMQASQTPYTFGQGTKVEIK
B9: ADI-20996 (antibody, V domains shown)
VH: QVQLVESGPALVKPTQTLTLTCTFSGFSLTTRGMCVSWIRQPPGKALEWLARIDWDDDKYYSTSLKTRLTISKDTSKNQVVLTMTNMDPVDTATYYCARASTLTTAGYYLHYKDVWGNGTTVTVSS
VL: DIRMTQSPSSLSASVGDRVTITCRASQSIGTYLNWFQQKPGKAPNLLIYAASILHSGVPSRFSGSGSGTDFTLTIRTLQPEDFATYYCQQSYPTVTFGQGTKVEIK
B10: ADI-21002 (antibody, V domains shown)
VH: QVQLVESGPGLVKPSGTLSLTCAVSGDSINSGNWWNWVRQAPGKGLEWIGEIYHRGTSNYNPSLKSRVTISVDQSKNQFSLKVTSLTAADTAIYYCARARGYSSGPSYYYYLDVWGKGTLVTVSS
VL: EIVMTQSPSSLSASVGDRVTISCRASQSISTYLNWYQQKPGKAPKVIIYGASNLQSGVPSRFSGSGSGTDFTLTISSLQPEDFATYYCQKSFNPCVFGQGTKVDIK
B11: ADI-21011 (antibody, V domains shown)
VH: QVQLQESGPGLVKPSETLSLSCTASGDSISDYYWSWIRQPPGKGLEWIGFVSDTWGTNYSPSLTSRVAISLDTSRSQVSLRLRSVTAADTAVYYCVRTHLYDRGGYYLYYFDYWGQGTLVTVSS
VL: DIRMTQSPPSLSASVGDRVTITCRASQRIASYLNWYQQKPDTAPKLLIYAASNLQTGVPSRFSGSGSGTDFTLTISSLQPEDFATYYCQQSYSTPYTFGQGTKLEIK
B12: ADI-21012 (antibody, V domains shown)
VH: QVQLVQSGPAVVKPTQTLTLTCSFSGFSLSTSRMSVSWIRQPPGKALEWLARIDWDGDKYYSTSLKSRLTISKDTSKNQVVLTMTNMDPVDTATYYCARGSYYVSSGYYLNYFDYWGQGTLVTVSS
VL: B11 VL with P9S, A25T, R28T, D41G, T42K, K45N, N53I, S93G, Y96Q, L104V
B13: ADI-21007 (antibody, V domains shown)
VH: QVQLVQSGADVKKPGASVKVSCKSSGYTFSNHSMHWVRQAPGQGLEWMGRIHPSSGTTTYAQKFQGRVTMTRDTSTSTVYMEVSSLRSEDTAVYYCARSPFFDFDFWGQGTMVTVSS
VL: SYVLTQPHSVSESPGKTVTISCTRSSGSIASNYVQWYQQRPGSAPTSVIYEDNQRPSGVPDRFSGSIDSTSNSASLTISGLKTEDEADYYCQSYYSSGWVFGGGTKLTVL
B14: ADI-21003 (antibody, V domains shown)
VH: QVQLQQWGAGLLKPSETLSLSCAVSGGSFSGYYWTWIRQPPGKGLEWIGEINHSGSTNYNPSLKSRVTISVDTSKNQFSLKLSSVTAADTAVYYCARARYFDYLAHWSFDLWGRGTLVTVSS
VL: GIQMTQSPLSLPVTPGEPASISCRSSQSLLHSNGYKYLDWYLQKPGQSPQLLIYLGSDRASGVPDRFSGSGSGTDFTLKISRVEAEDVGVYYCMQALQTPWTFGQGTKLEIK

Target: RSV prefusion F (preF), subtype B (respiratory syncytial virus, subtype B)
Experiment: BLI, IgG

Row | Binder | Kd
1 | B1 | 10.2 nM
2 | B2 | 2.14 nM
3 | B3 | 6.29 nM
4 | B4 | 1.3 nM
5 | B5 | 4.14 nM
6 | B6 | 1.85 nM
7 | B7 | 0.904 nM
8 | B8 | 0.742 nM
9 | B9 | 1.06 nM
10 | B10 | 8.6 nM
11 | B11 | 0.982 nM
12 | B12 | 1.92 nM
13 | B13 | 1.72 nM
14 | B14 | 0.987 nM

Target: T1, RSV postfusion F (postF), subtype A (respiratory syncytial virus, subtype A, UniProt P03420 26-513)
T1 construct: also called F ΔFP; Postfusion subtype A
Experiment: BLI, IgG

Row | Binder | Kd
15 | B1 | 0.54 nM
16 | B2 | 0.233 nM
17 | B3 | 0.428 nM
18 | B4 | 0.295 nM
19 | B5 | 0.918 nM
20 | B6 | 0.277 nM
21 | B7 | 0.178 nM
22 | B8 | 0.168 nM
23 | B9 | 0.204 nM
24 | B10 | 0.214 nM
25 | B11 | 0.162 nM
26 | B12 | 0.214 nM
27 | B13 | 0.171 nM
28 | B14 | 0.44 nM

Target: RSV prefusion F (preF), subtype A (respiratory syncytial virus, subtype A, UniProt P03420 26-513)
Experiment: BLI, IgG

Row | Binder | Kd
29 | B1 | 4.59 nM
30 | B2 | 2.34 nM
31 | B3 | 4.8 nM
32 | B4 | 1.49 nM
33 | B5 | 5.68 nM
34 | B6 | 2.12 nM
35 | B7 | 1.58 nM
36 | B8 | 1.38 nM
37 | B9 | 1.03 nM
38 | B10 | 2.36 nM
39 | B11 | 1.41 nM
40 | B12 | 0.371 nM
41 | B13 | 1.48 nM
42 | B14 | 4.75 nM

Target: T2, RSV postfusion F (postF), subtype B (respiratory syncytial virus, subtype B)
T2 construct: also called F ΔFP; Postfusion subtype B
Experiment: BLI, IgG

Row | Binder | Kd
43 | B1 | 0.798 nM
44 | B2 | 0.295 nM
45 | B3 | 0.809 nM
46 | B4 | 0.602 nM
47 | B5 | 1.45 nM
48 | B6 | 0.302 nM
49 | B7 | 0.312 nM
50 | B8 | 0.273 nM
51 | B9 | 1.12 nM
52 | B10 | 6.39 nM
53 | B11 | 0.356 nM
54 | B12 | 0.28 nM
55 | B13 | 0.171 nM
56 | B14 | 0.421 nM
